Measurements as given in patent US20200199241A1 (Chugai, published 2020).

B1: IgG1-F167 (antibody)
heavy: QVQLQESGPGLVKPSETLSLTCAVSGHSISHDHAWSWVRQPPGEGLEWIGFISYSGITNYNPSLQGRVTISRDNSKNTLYLQMNSLRAEDTAVYYCARSLARTTAMDYWGEGTLVTVSSASTKGPSVFPLAPSSKSTSGGTAALGCLVKDYFPEPVTVSWNSGALTSGVHTFPAVLQSSGLYSLSSVVTVPSSSLGTQTYICNVNHKPSNTKVDKKVEPKSCDKTHTCPPCPAPELLGGPSVFLFPPKPKDTLWISRTPEVTCVVVDVSHEDPEVKFNWYVDGVEVHNAKTKPREEQYNSTYRVASVLTVLHQDWLNGKEYKCKVSNKALPAPIEKTISKAKGQPREPQVYTLPPSRDELTKNQVSLTCLVKGFYPSDIAVEWESNGQPENNYKTTPPVLDSDGSFFLYSKLTVDKSRWQQGNVFSCSVMHEALHYHYTQKSLSLSP
light: not shown
notes: EU numbering; copies: 2 + 2
B2: IgG1-F173 (antibody)
heavy: QVQLQESGPGLVKPSETLSLTCAVSGHSISHDHAWSWVRQPPGEGLEWIGFISYSGITNYNPSLQGRVTISRDNSKNTLYLQMNSLRAEDTAVYYCARSLARTTAMDYWGEGTLVTVSSASTKGPSVFPLAPSSKSTSGGTAALGCLVKDYFPEPVTVSWNSGALTSGVHTFPAVLQSSGLYSLSSVVTVPSSSLGTQTYICNVNHKPSNTKVDKKVEPKSCDKTHTCPPCPAPELLGGPSVFLFPPKPKDTLWISRTPEVTCVVVDVSHEDPEVKFNWYVDGVEVHNAKTKPREEQYNSTYRVVSVLTVLHQDWLNGKEYKCKVSNKALPAPIEKTISKAKGQPREPQVYTLPPSRDELTKNQVSLTCLVKGFYPSDIAVAWESNGQPENNYKTTPPVLDSDGSFFLYSKLTVDKSRWQQGNVFSCSVMHEALHYHYTQKSLSLSP
light: not shown
notes: EU numbering; copies: 2 + 2
B3: IgG1-F169 (antibody)
heavy: QVQLQESGPGLVKPSETLSLTCAVSGHSISHDHAWSWVRQPPGEGLEWIGFISYSGITNYNPSLQGRVTISRDNSKNTLYLQMNSLRAEDTAVYYCARSLARTTAMDYWGEGTLVTVSSASTKGPSVFPLAPSSKSTSGGTAALGCLVKDYFPEPVTVSWNSGALTSGVHTFPAVLQSSGLYSLSSVVTVPSSSLGTQTYICNVNHKPSNTKVDKKVEPKSCDKTHTCPPCPAPELLGGPSVFLFPPKPKDTLWISRTPEVTCVVVDVSHEDPEVKFNWYVDGVEVHNAKTKPREEQYNSTYRVVSALTVLHQDWLNGKEYKCKVSNKALPAPIEKTISKAKGQPREPQVYTLPPSRDELTKNQVSLTCLVKGFYPSDIAVEWESNGQPENNYKTTPPVLDSDGSFFLYSKLTVDKSRWQQGNVFSCSVMHEALHYHYTQKSLSLSP
light: not shown
notes: EU numbering; copies: 2 + 2
B4: IgG1-F171 (antibody)
heavy: QVQLQESGPGLVKPSETLSLTCAVSGHSISHDHAWSWVRQPPGEGLEWIGFISYSGITNYNPSLQGRVTISRDNSKNTLYLQMNSLRAEDTAVYYCARSLARTTAMDYWGEGTLVTVSSASTKGPSVFPLAPSSKSTSGGTAALGCLVKDYFPEPVTVSWNSGALTSGVHTFPAVLQSSGLYSLSSVVTVPSSSLGTQTYICNVNHKPSNTKVDKKVEPKSCDKTHTCPPCPAPELLGGPSVFLFPPKPKDTLWISRTPEVTCVVVDVSHEDPEVKFNWYVDGVEVHNAKTKPREEQYNSTYRVVSVLTVLHQAWLNGKEYKCKVSNKALPAPIEKTISKAKGQPREPQVYTLPPSRDELTKNQVSLTCLVKGFYPSDIAVEWESNGQPENNYKTTPPVLDSDGSFFLYSKLTVDKSRWQQGNVFSCSVMHEALHYHYTQKSLSLSP
light: not shown
notes: EU numbering; copies: 2 + 2
B5: IgG1-F168 (antibody)
heavy: QVQLQESGPGLVKPSETLSLTCAVSGHSISHDHAWSWVRQPPGEGLEWIGFISYSGITNYNPSLQGRVTISRDNSKNTLYLQMNSLRAEDTAVYYCARSLARTTAMDYWGEGTLVTVSSASTKGPSVFPLAPSSKSTSGGTAALGCLVKDYFPEPVTVSWNSGALTSGVHTFPAVLQSSGLYSLSSVVTVPSSSLGTQTYICNVNHKPSNTKVDKKVEPKSCDKTHTCPPCPAPELLGGPSVFLFPPKPKDTLWISRTPEVTCVVVDVSHEDPEVKFNWYVDGVEVHNAKTKPREEQYNSTYRVVSVLTVLHQDWLNGKEYKCKVSNKALPAPIEKTISKAKGQPREPQVYTLPPSRDELTKNQVSLTCLVKGFYPSAIAVEWESNGQPENNYKTTPPVLDSDGSFFLYSKLTVDKSRWQQGNVFSCSVMHEALHYHYTQKSLSLSP
light: not shown
notes: EU numbering; copies: 2 + 2
B6: IgG1-F172 (antibody)
heavy: QVQLQESGPGLVKPSETLSLTCAVSGHSISHDHAWSWVRQPPGEGLEWIGFISYSGITNYNPSLQGRVTISRDNSKNTLYLQMNSLRAEDTAVYYCARSLARTTAMDYWGEGTLVTVSSASTKGPSVFPLAPSSKSTSGGTAALGCLVKDYFPEPVTVSWNSGALTSGVHTFPAVLQSSGLYSLSSVVTVPSSSLGTQTYICNVNHKPSNTKVDKKVEPKSCDKTHTCPPCPAPELLGGPSVFLFPPKPKDTLWISRTPEVTCVVVDVSHEDPEVKFNWYVDGVEVHNAKTKPREEQYNSTYRVVSVLTVLHQDWLNGAEYKCKVSNKALPAPIEKTISKAKGQPREPQVYTLPPSRDELTKNQVSLTCLVKGFYPSDIAVEWESNGQPENNYKTTPPVLDSDGSFFLYSKLTVDKSRWQQGNVFSCSVMHEALHYHYTQKSLSLSP
light: not shown
notes: EU numbering; copies: 2 + 2
B7: IgG1-F177 (antibody)
heavy: QVQLQESGPGLVKPSETLSLTCAVSGHSISHDHAWSWVRQPPGEGLEWIGFISYSGITNYNPSLQGRVTISRDNSKNTLYLQMNSLRAEDTAVYYCARSLARTTAMDYWGEGTLVTVSSASTKGPSVFPLAPSSKSTSGGTAALGCLVKDYFPEPVTVSWNSGALTSGVHTFPAVLQSSGLYSLSSVVTVPSSSLGTQTYICNVNHKPSNTKVDKKVEPKSCDKTHTCPPCPAPELLGGPSVFLFPPKPKDTLWISRTPEVTCVVVDVSHEDPEVKFNWYVDGVEVHNAKTKPREEQYNGTYRVVSVLTVLHQDWLNGKEYKCKVSNKALPAPIEKTISKAKGQPREPQVYTLPPSRDELTKNQVSLTCLVKGFYPSDIAVEWESNGQPENNYKTTPPVLDSDGSFFLYSKLTVDKSRWQQGNVFSCSVMHEALHYHYTQKSLSLSP
light: not shown
notes: EU numbering; copies: 2 + 2
B8: IgG1-F179 (antibody)
heavy: QVQLQESGPGLVKPSETLSLTCAVSGHSISHDHAWSWVRQPPGEGLEWIGFISYSGITNYNPSLQGRVTISRDNSKNTLYLQMNSLRAEDTAVYYCARSLARTTAMDYWGEGTLVTVSSASTKGPSVFPLAPSSKSTSGGTAALGCLVKDYFPEPVTVSWNSGALTSGVHTFPAVLQSSGLYSLSSVVTVPSSSLGTQTYICNVNHKPSNTKVDKKVEPKSCDKTHTCPPCPAPELLGGPSVFLFPPKPKDTLWISRTPEVTCVVVDVSHEDPEVKFNWYVDGVEVHNAKTKPREEQYNSTYRVVSVLTVLHQDWLNGKEYKCKVSGKALPAPIEKTISKAKGQPREPQVYTLPPSRDELTKNQVSLTCLVKGFYPSDIAVEWESNGQPENNYKTTPPVLDSDGSFFLYSKLTVDKSRWQQGNVFSCSVMHEALHYHYTQKSLSLSP
light: not shown
notes: EU numbering; copies: 2 + 2
B9: IgG1-F178 (antibody)
heavy: QVQLQESGPGLVKPSETLSLTCAVSGHSISHDHAWSWVRQPPGEGLEWIGFISYSGITNYNPSLQGRVTISRDNSKNTLYLQMNSLRAEDTAVYYCARSLARTTAMDYWGEGTLVTVSSASTKGPSVFPLAPSSKSTSGGTAALGCLVKDYFPEPVTVSWNSGALTSGVHTFPAVLQSSGLYSLSSVVTVPSSSLGTQTYICNVNHKPSNTKVDKKVEPKSCDKTHTCPPCPAPELLGGPSVFLFPPKPKDTLWISRTPEVTCVVVDVSHEFPEVKFNWYVDGVEVHNAKTKPREEQYNSTYRVVSVLTVLHQDWLNGKEYKCKVSNKALPAPIEKTISKAKGQPREPQVYTLPPSRDELTKNQVSLTCLVKGFYPSDIAVEWESNGQPENNYKTTPPVLDSDGSFFLYSKLTVDKSRWQQGNVFSCSVMHEALHYHYTQKSLSLSP
light: not shown
notes: EU numbering; copies: 2 + 2
B10: IgG1-F174 (antibody)
heavy: QVQLQESGPGLVKPSETLSLTCAVSGHSISHDHAWSWVRQPPGEGLEWIGFISYSGITNYNPSLQGRVTISRDNSKNTLYLQMNSLRAEDTAVYYCARSLARTTAMDYWGEGTLVTVSSASTKGPSVFPLAPSSKSTSGGTAALGCLVKDYFPEPVTVSWNSGALTSGVHTFPAVLQSSGLYSLSSVVTVPSSSLGTQTYICNVNHKPSNTKVDKKVEPKSCDKTHTCPPCPAPELLGGPSVFLFPPKPKDTLWISRTPEVTCVVVDVSHEDPEVKFNWYVDGVEVHNAKTKPREEQYNSTYRVVSVLTVLHQDWLNGKEYKCKVSNKALPAPIEKTISKAKGQPREPQVYTLPPSRDELTKNQVSLTCLVKGFYPSDIAVEWASNGQPENNYKTTPPVLDSDGSFFLYSKLTVDKSRWQQGNVFSCSVMHEALHYHYTQKSLSLSP
light: not shown
notes: EU numbering; copies: 2 + 2
B11: IgG1-F170 (antibody)
heavy: QVQLQESGPGLVKPSETLSLTCAVSGHSISHDHAWSWVRQPPGEGLEWIGFISYSGITNYNPSLQGRVTISRDNSKNTLYLQMNSLRAEDTAVYYCARSLARTTAMDYWGEGTLVTVSSASTKGPSVFPLAPSSKSTSGGTAALGCLVKDYFPEPVTVSWNSGALTSGVHTFPAVLQSSGLYSLSSVVTVPSSSLGTQTYICNVNHKPSNTKVDKKVEPKSCDKTHTCPPCPAPELLGGPSVFLFPPKPKDTLWISRTPEVTCVVVDVSHEDPEVKFNWYVDGVEVHNAKTKPREEQYNSTYRVVSVLTVLHADWLNGKEYKCKVSNKALPAPIEKTISKAKGQPREPQVYTLPPSRDELTKNQVSLTCLVKGFYPSDIAVEWESNGQPENNYKTTPPVLDSDGSFFLYSKLTVDKSRWQQGNVFSCSVMHEALHYHYTQKSLSLSP
light: not shown
notes: EU numbering; copies: 2 + 2
B12: IgG1-F175 (antibody)
heavy: QVQLQESGPGLVKPSETLSLTCAVSGHSISHDHAWSWVRQPPGEGLEWIGFISYSGITNYNPSLQGRVTISRDNSKNTLYLQMNSLRAEDTAVYYCARSLARTTAMDYWGEGTLVTVSSASTKGPSVFPLAPSSKSTSGGTAALGCLVKDYFPEPVTVSWNSGALTSGVHTFPAVLQSSGLYSLSSVVTVPSSSLGTQTYICNVNHKPSNTKVDKKVEPKSCDKTHTCPPCPAPELLGGPSVFLFPPKPKDTLWISRTPEVTCVVVDVSHEDPEVKFNWYVDGVEVHNAKTKPREEQYNSTYRVVSVLTVLHQDWLNGKEYKCKVSNKALPAPIEKTISKAKGQPREPQVYTLPPSRDELTKNQVSLTCLVKGFYPSDIAVEWESNGQPENNYKTTPPVLDSDGSFFLYSKLTVDKSRWQQGNVFACSVMHEALHYHYTQKSLSLSP
light: not shown
notes: EU numbering; copies: 2 + 2
B13: IgG1-F176 (antibody)
heavy: QVQLQESGPGLVKPSETLSLTCAVSGHSISHDHAWSWVRQPPGEGLEWIGFISYSGITNYNPSLQGRVTISRDNSKNTLYLQMNSLRAEDTAVYYCARSLARTTAMDYWGEGTLVTVSSASTKGPSVFPLAPSSKSTSGGTAALGCLVKDYFPEPVTVSWNSGALTSGVHTFPAVLQSSGLYSLSSVVTVPSSSLGTQTYICNVNHKPSNTKVDKKVEPKSCDKTHTCPPCPAPELLGGPKVFLFPPKPKDTLWISRTPEVTCVVVDVSHEDPEVKFNWYVDGVEVHNAKTKPREEQYNSTYRVVSVLTVLHQDWLNGKEYKCKVSNKALPAPIEKTISKAKGQPREPQVYTLPPSRDELTKNQVSLTCLVKGFYPSDIAVEWESNGQPENNYKTTPPVLDSDGSFFLYSKLTVDKSRWQQGNVFSCSVMHEALHYHYTQKSLSLSP
light: not shown
notes: EU numbering; copies: 2 + 2

target: T1, human FcRn (soluble human FcRn complexed with β2-microglobulin) (human, UniProt P61769 21-119, limits assumed); assay: SPR, pH 7.0;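 further: antibodies captured on a Protein L sensor chip with human FcRn injected as analyte, KD calculated from fitted association and dissociation rate constants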
T1 construct: also called hFcRn
T1 sequence (chain, as listed by the source limits assumed, chain 1 of 2): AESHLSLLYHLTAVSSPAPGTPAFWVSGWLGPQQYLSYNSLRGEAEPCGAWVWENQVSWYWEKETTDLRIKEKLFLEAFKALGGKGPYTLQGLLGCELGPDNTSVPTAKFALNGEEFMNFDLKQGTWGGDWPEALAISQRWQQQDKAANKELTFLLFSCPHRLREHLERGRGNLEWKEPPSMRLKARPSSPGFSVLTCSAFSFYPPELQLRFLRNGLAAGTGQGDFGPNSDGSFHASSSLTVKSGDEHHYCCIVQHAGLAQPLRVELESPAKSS
T1 sequence (P61769 21-119 limits assumed, chain 2 of 2): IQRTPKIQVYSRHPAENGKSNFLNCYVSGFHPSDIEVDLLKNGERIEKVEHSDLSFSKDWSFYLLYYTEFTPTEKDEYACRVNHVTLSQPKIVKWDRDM

Compared with B1, B2 is 2.7-fold higher in Kd: 290 nM for the first, 770 nM for the second.

First: B3
Second: B4
The Kd of the first is 1.5-fold higher: 290 nM for the first, 190 nM for the second. The second binds more tightly here.

B5 and B6 are within 1.5-fold of each other in Kd: 320 nM for the first, 220 nM for the second.

B7 and B8 are within 1.5-fold of each other in Kd: 280 nM for the first, 310 nM for the second.

B9 and B10 are within 1.5-fold of each other in Kd: 270 nM for the first, 340 nM for the second.

Compared with B11, B12 is 1.6-fold higher in Kd: 170 nM for the first, 270 nM for the second. The first binds more tightly here.

B13 was tested, and the Kd was 290 nM.
